Source: the MegaScale stability set (Tsuboyama et al. 2023)

B1: EEHEE_rd3_0130 (parent)
chain: TKIIVNGKTFTAPTEEEAQKIAEKLAKKAGLTVHKKNGTFELK

Variants of: B1
Assay: folding stability dG (cDNA display proteolysis); higher = more stable
Conditions: PBS, room temperature

Folding stability dG [kcal/mol] of substitutions, site by site:
T1: C 0.97 | M 0.565 | Y 2.19 | Q 0.151 | S 0.636 | P 0.553 | G 0.627 | R 0.322
N37: P 0.201 | A 0.339 | I -0.193 | G 0.697 | L 0.216 | E 0.63 | R -0.324 | S -0.174
T11: V 0.762 | L 0.81 | N 0.328 | C 1.63 | H 0.697 | E 0.261
E17: L 1.25 | N 0.064 | T 0.526 | I 1.33 | F 0.623 | M 1.19 | V 0.922 | Y 0.614 | D 0.564 | H 0.567 | Q 0.916
L31: P -0.624 | Y 0.657 | R -0.423 | A -0.168 | Q -0.255 | D -0.475 | W 0.742 | V -0.031 | N -0.814 | M 0.895 | G -0.504 | H -0.13
T9: Y 0.633 | E 0.17 | L 0.562 | K 0.007 | I 1.01 | V 1.12 | C 1.66 | N -0.378 | S 0.461
K8: I 0.962 | V 0.864 | M 0.926 | G -0.232 | D -0.391 | R 0.999 | L 0.895 | Y 1.33 | N 0.238
I21: S -0.174 | K 0.005 | L 0.99 | R 0.152 | V 0.46 | E -0.19 | N -0.725
T32: L 0.291 | F 0.022 | P -0.446 | E 0.222 | K 0.69 | C 1.05 | S 0.621 | N 0.28 | M 0.321 | R 0.561 | I 0.92 | A 0.577
G38: N 0.509 | Y 0.009 | R -0.474 | F 0.05 | T -0.511 | M -0.52 | D 0.488 | S -0.804 | E 0.033
G30: F -0.093 | Q 0.163 | E -0.258 | R 0.057 | M 0.018 | H 0.531 | P -0.624 | K 0.272 | W -0.249
A18: Y -0.863 | E -0.74 | T -0.68 | F -0.368 | K -0.952 | V -0.585 | M -0.37 | W -0.4 | R -0.569 | N -0.938 | Q -0.715
A12: I 1.26 | L 1.19 | Q -0.091 | K -0.014 | D -0.138 | R 0.461 | N -0.407 | S 0.182 | H 0.346
K27: Q 0.76 | R 0.991 | L 0.834 | M 0.725 | Y 0.616 | A 0.812
A22: G -0.83 | M 0.143 | F 0.168 | L 0.301 | E -0.91 | I 0.601 | C 0.374 | Y -0.256
V33: A 0.036 | G -0.128 | F 0.358 | D -0.376 | L 0.891
F40: G -0.038 | D 0.04 | N 0.021 | T -0.035 | W 0.271
K24: Y 1.64 | W 1.78 | V 0.829
I3: L -0.098 | W -0.228 | Y 0.08 | S -0.742 | Q -0.664
V5: C 1.63 | P -0.548 | A 0.171 | E -0.633 | R -0.49 | M 0.826 | H 0.397
E16: W 0.933 | Y 0.864 | M 0.821 | Q 0.827 | G 0.554 | N 0.47 | C 0.888 | T 0.649
Q19: E 0.914 | R 1.04 | A 0.824
A26: S 0.1 | I -0.198 | R -0.166 | M -0.151 | D -0.815 | H -0.447 | W -0.138 | T -0.552 | G 0.163
T14: L -0.412 | M -0.226 | A -0.233 | R -0.419 | H -0.337 | P -0.49 | E -0.71
N6: S 0.36 | Q 0.329 | L 0.861 | P -0.076 | H 0.793 | Y 1.42 | I 0.222 | E 0.325 | D 0.319 | V -0.097 | M 0.863 | T -0.318
E23: W 0.894 | K 0.602 | R 0.794 | I 0.873 | S 0.686 | Q 0.752 | A 0.74 | T 0.669 | V 0.598 | F 0.837 | H 0.803
K43: D 0.338 | C 1.76 | F 1.13 | G 0.476 | H 0.826 | E 0.545 | P -0.2 | Y 1.15 | S 0.91 | R 1.07 | Q 0.615 | I 1.33 | T 1.07
K2: D 0.156 | S 0.364 | Y 0.641 | N 0.108 | W 0.519 | L 0.93 | T 0.448 | G -0.359
E41: W 1.45 | Y 1.85 | L 0.903 | H 0.56 | K -0.978 | I 1.48 | D -0.202
E15: L 0.994 | M 0.994 | P 0.736 | C 1.07 | G 0.188 | S 0.561
K28: S 0.779 | V 0.795 | T 0.727 | H 0.757 | I 0.992 | R 1.14
P13: Y 0.302 | V 0.451 | A 0.804 | W 0.532 | I 0.41 | Q 0.651
I4: A -0.213 | Q 0.068 | M 0.561 | Y 0.689 | E -0.066 | T 0.449 | P -0.499 | F 0.575
K35: V 0.732 | F 1.61 | H 0.653 | P -0.427 | E 0.03 | R 0.798 | W 1.34 | Q 0.41
G7: F 0.265 | K 0.029 | R 0.021 | S -0.025 | I -0.201 | M -0.071 | H 0.106 | Y 0.159 | C 0.961 | V -0.592 | P -0.749 | A 0.007
A29: W 3.21 | E 0.607 | Q 0.726 | T 1.2 | Y 3.33 | F 2.88 | N 1.17 | I 0.979
H34: N 0.474 | D 0.195 | E 0.679 | V 1.25 | R 0.72 | Y 1.14
L25: C 1.13 | V 0.245 | I 1.13 | T -0.134 | G -0.493 | W 1.48 | D -0.802 | E -0.265
K36: D 0.477 | F 0.986 | S 0.956 | W 0.712 | L 1.01 | T 1.02 | C 0.875 | E 0.75
K20: W 0.804 | M 0.854 | V 0.724 | R 1.01
L42: I 0.782 | P 0.076 | N 0.089 | W 0.069 | G 0.249 | S 0.186 | A 0.214
T39: Q 1.29 | S 1.24 | N 1.12 | I 1.44 | K 0.554 | R 0.935 | G 1.13 | C 1.17
F10: M 0.05 | W 0.82
